Consider 1 substance from article PMC6358605.

The target in the experiment is BiP NBD (28–413) (Chinese hamster) (UniProt G3I8R9).
Sequence of BiP NBD (28–413) (Chinese hamster) (G3I8R9 28-413): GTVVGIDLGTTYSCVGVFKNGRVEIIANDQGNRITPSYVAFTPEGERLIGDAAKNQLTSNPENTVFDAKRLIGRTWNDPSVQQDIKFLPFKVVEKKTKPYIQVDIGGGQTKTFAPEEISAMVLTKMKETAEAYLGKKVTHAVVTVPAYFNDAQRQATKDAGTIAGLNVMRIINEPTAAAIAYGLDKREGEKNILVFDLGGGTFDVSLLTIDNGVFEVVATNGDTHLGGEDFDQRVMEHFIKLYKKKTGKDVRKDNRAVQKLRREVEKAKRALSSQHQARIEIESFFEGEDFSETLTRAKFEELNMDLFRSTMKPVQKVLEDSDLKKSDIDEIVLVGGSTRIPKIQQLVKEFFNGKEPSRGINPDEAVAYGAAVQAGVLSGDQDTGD

“Full-length mouse MANF (wild-type) (from UniProt Q9CXI5 22-179) (natural protein)” returned an inhibition of MABA-ADP release, concentration-dependent (Supplementary Fig. 4a, b) of 26.5 µM.
